Source: paper PMC6699074, “Structural and functional characterization of a novel cold-active S-formylglutathione hydrolase (SfSFGH) homolog from Shewanella frigidimarina, a psychrophilic bacterium” (Microbial Cell Factories, 2019)
Each block holds one molecule with its values, some of them ahead of it.

Assays:
[1] = biological target: S-formylglutathione hydrolase (SfSFGH) from Shewanella frigidimarina (Shewanella frigidimarina); assay: AUC; SfSFGH in 150 mM NaCl, 20 mM Tris-HCl pH 8.0, 20 °C, 40,000 rpm, monitored at 280 nm, analysed with SEDFIT
purified protein [2] = substrate: CC(=O)Oc1ccc([N+](=O)[O-])cc1; assay: purified protein; assay type: biochemical, Shewanella frigidimarina; settings: 20 mM Tris-HCl pH 8.0, 120 mM NaCl, room temperature
purified protein [3] = substrate: CCCCCCCC(=O)Oc1ccc([N+](=O)[O-])cc1; assay: purified protein; assay type: biochemical, Shewanella frigidimarina; settings: 20 mM Tris-HCl pH 8.0, 120 mM NaCl, room temperature
purified protein [4] = substrate: CCCC(=O)Oc1ccc([N+](=O)[O-])cc1; assay: purified protein; assay type: biochemical, Shewanella frigidimarina; settings: 20 mM Tris-HCl pH 8.0, 120 mM NaCl, room temperature

stoichiometry N [1]: 2
Molecule: S-formylglutathione hydrolase (SfSFGH) from Shewanella frigidimarina (enzyme)

B1: SfSFGH (Shewanella frigidimarina NCIMB 400) (protein)
chain: MTIENMSVNKSFGGWHKQYSHQSQTLNCEMRFAIYLPPQASSGKKVPVLYWLSGLTCTDENFMQKAGAQALAAELGIAIVAPDTSPRGENVADDEGYDLGKGAGFYVNATQAPWNRHYRMYDYVVDELPKLIESMFPVSDKRSIAGHSMGGHGALVIALRNADAYQSVSAFSPISNPINCPWGKKALTAYLGRDSATWMEYDASVLMRQATQFVPALVDQGDADNFLVEQLKPEVLEAAAKVKGYPLELNYREGYDHSYYFISSFIENHLRFHAEHLGK
Km (purified protein [2]): 515 (± 42.8) µM
kcat (purified protein [2]): 0.310 (± 0.0258) s^-1

B2: SfSFGH (Shewanella frigidimarina NCIMB 400; W182A) (protein)
chain: MTIENMSVNKSFGGWHKQYSHQSQTLNCEMRFAIYLPPQASSGKKVPVLYWLSGLTCTDENFMQKAGAQALAAELGIAIVAPDTSPRGENVADDEGYDLGKGAGFYVNATQAPWNRHYRMYDYVVDELPKLIESMFPVSDKRSIAGHSMGGHGALVIALRNADAYQSVSAFSPISNPINCPAGKKALTAYLGRDSATWMEYDASVLMRQATQFVPALVDQGDADNFLVEQLKPEVLEAAAKVKGYPLELNYREGYDHSYYFISSFIENHLRFHAEHLGK
Km (purified protein [2]): 1.393 ± 0.136 mM
Vmax (purified protein [2]): 323 µM/min
kcat (purified protein [2]): 1.85 ± 0.092 s⁻¹
kcat/Km (purified protein [2]): 1300 M⁻¹ s⁻¹
Km (purified protein [3]): 495 ± 85 µM
Vmax (purified protein [3]): 28.6 µM/min
kcat (purified protein [3]): 0.144 ± 0.007 s⁻¹
kcat/Km (purified protein [3]): 300 M⁻¹ s⁻¹
Km (purified protein [4]): 303 ± 49 µM
Vmax (purified protein [4]): 51.7 µM/min
kcat (purified protein [4]): 8 ± 0.326 s⁻¹
kcat/Km (purified protein [4]): 26400 M⁻¹ s⁻¹
